Ends that are not written are not given here.
T1: human VEGFR3-Fc fusion protein (human, UniProt P35916 25-329, limits assumed)
T1 construct: domain: first three Ig homology domain of the extracellular portion; Coated on microtiter wells at 1 ug/ml; not shown: Fc tail of human IgG1, cloned in frame after the VEGFR3 Ig homology domains
T1 sequence (looked up): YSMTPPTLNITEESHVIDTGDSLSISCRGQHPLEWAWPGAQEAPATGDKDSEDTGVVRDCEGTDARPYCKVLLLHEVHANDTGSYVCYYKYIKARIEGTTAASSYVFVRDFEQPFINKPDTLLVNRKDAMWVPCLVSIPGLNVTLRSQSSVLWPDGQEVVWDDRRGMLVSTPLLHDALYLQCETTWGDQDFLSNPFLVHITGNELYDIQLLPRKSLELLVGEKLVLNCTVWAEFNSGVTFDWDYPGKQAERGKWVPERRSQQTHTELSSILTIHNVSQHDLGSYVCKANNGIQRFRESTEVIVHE

B1: CYGFLWGMC (SEQ ID NO: 60) (peptide)
peptide: CYGFLWGMC
modifications: not fully specified (bridges); cysteine pairing not given here; also: displayed on fUSE5 phage as coat protein fusion, flanking residues not given here
notes: also called CX7C library clone

molecular target: T1, human VEGFR3-Fc fusion protein; experiment: phage attachment assay, VEGFR3-Fc-coated versus BSA-blocked microtiter wells
Procedure: VEGFR3-Fc fusionprotein (1 μg/ml) was coated on microtiter wells (96-well plate) overnight at 4° C. Wells were then saturated with 5% BSA. In the first panning, the libraries were incubated overnight at 4° C. in 50 mM TBS buffer (Tris-HCl/0.1M NaCl, pH 7.5) containing 1% BSA. After extensive washing, the bounded phages were eluted with a low pH buffer (0.1M glycine-HCl, 0.1%BSA, 0.05% phenol red, pH2.2)(Koivunen et al., Methods Mol. Biol. 129:3-17,1999; Koivunenet al, Biotechnol., 18(8):768-74,1999; Smoth et al., Methods Enzymol., 217:228-357, 1993). In subsequent pannings, the amplified phages using the K91kan E. coli.(Koivunen et al., Methods Mol. Biol. 129:3-17, 1999) were allowed to bind for 1 h at room temperature. Randomly selected clones from the fourth round of panning were amplified overnight and sequenced using ABIPRISM 310 Genetic Analyzer. The binding of each clone to VEGFR-3 was verified by an attachment assay, in which the cloned phage were incubated for 60 minutes in VEGFR3-Fc-coated or BSA-blocked microtiter wells. Thewells were washed ten times with TBS containing 0.5% Tween-20. The bound phages were titered by calculating the number of colonies.

Binding result, binds:
CVEVQITQEC (also called CX8C library clone) [CVEVQITQEC (SEQ ID NO: 56)], CMDPWGGWC (also called CX7C library clone) [CMDPWGGWC (SEQ ID NO: 63)], SCYWRDTWF (also called X9 library clone) [SCYWRDTWF (SEQ ID NO: 37)], CWQLGRNWIC (also called CX8C library clone) [CWQLGRNWIC (SEQ ID NO: 55)], CRALDSALAC (also called CX8C library clone) [CRALDSALAC (SEQ ID NO: 58)], CYGFEAAWC (also called CX7C library clone) [CYGFEAAWC (SEQ ID NO: 59)], YSSSMRWRH (also called X9 library clone) [YSSSMRWRH (SEQ ID NO: 40)], CGQMCTVWCSSGC (also called CX3CX3CX3C library clone) [CGQMCTVWCSSGC (SEQ ID NO: 66)], KVGWSSPDW (also called X9 library clone) [KVGWSSPDW (SEQ ID NO: 38)], RWRGNAYPG (also called X9 library clone) [RWRGNAYPG (SEQ ID NO: 41)], CRKVWDIRC (also called CX7C library clone) [CRKVWDIRC (SEQ ID NO: 64)], SGYWWDTWF (also called X9 library clone) [SGYWWDTWF (SEQ ID NO: 36)], CSRWRILGC (also called CX7C library clone) [CSRWRILGC (SEQ ID NO: 61)], FVGWTKVLG (also called X9 library clone) [FVGWTKVLG (SEQ ID NO: 39)], CHKWQKRQC (also called CX7C library clone) [CHKWQKRQC (SEQ ID NO: 62)], CVWDHGVC [CVWDHGVC (SEQ ID NO: 65)], SAVFRGRWL (also called X9 library clone) [SAVFRGRWL (SEQ ID NO: 42)], WFSASLRFR (also called X9 library clone) [WFSASLRFR (SEQ ID NO: 43)], B1, CAGKASSLWC (also called CX8C library clone) [CAGKASSLWC (SEQ ID NO: 57)]

From patent US20020164667A1 (VEGENICS, published 2002)
